# Data reported in US20070110818A1, “Milk fractions and milk preparations for treating and/or preventing cox-2 mediated diseases” (priority 2003, published 2007).
# T1: COX-2 (Homo sapiens, UniProt P35354)
# T1 construct: treated with 100 nM (nmol/l) phorbol 12-myristate 13-acetate for 6 h at 37° C. to induce COX-2 isoenzyme; endogenous in cells; host or cells: HUV-EC-C (ATCC CRL1730), PMA-induced
# T1 sequence (P35354 18-604): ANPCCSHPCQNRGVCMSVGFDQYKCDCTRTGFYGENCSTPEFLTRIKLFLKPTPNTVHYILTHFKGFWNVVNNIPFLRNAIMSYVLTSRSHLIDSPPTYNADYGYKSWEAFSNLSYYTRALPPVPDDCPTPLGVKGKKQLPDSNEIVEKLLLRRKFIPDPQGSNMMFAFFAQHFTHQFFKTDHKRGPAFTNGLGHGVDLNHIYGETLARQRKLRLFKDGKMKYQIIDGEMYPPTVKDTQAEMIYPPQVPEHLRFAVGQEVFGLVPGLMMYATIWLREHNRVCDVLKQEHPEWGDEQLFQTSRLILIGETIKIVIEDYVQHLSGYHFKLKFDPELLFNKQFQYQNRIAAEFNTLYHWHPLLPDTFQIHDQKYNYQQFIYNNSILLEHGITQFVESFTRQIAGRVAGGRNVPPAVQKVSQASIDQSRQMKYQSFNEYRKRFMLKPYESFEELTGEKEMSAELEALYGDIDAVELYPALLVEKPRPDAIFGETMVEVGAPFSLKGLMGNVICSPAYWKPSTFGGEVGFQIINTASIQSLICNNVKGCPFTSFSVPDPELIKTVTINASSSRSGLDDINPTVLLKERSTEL
# Target: T1, COX-2
# Test: COX-2 screening in PMA-induced HUV-EC-C cells (Prostaglandine-E2 production by RIA)
# Format: cell-based
# Protocol: HUV-EC-C cells (a permanent endothelial cell line derived from the vein of a normal human umbilical cord; ATCC CRL1730; M. Miralpeix, M. Camacho et al., Brit. J. Pharmacol. 121 (1997), 171-180), were seeded onto 96-well plates (RPMI 1640+10% FCS) and treated with 100 nM (nmol/l) phorbol 12-myristate 13-acetate for 6 h at 37° C. to induce COX-2 isoenzyme. 50 μM (μmol/l) arachidonic acid were then added and the cells were incubated in the presence of test compounds or mixtures for 30 min at 37° C. Prostaglandine-E2 production was measured by radioimmuno assay (RIA) and the radioactivity determined with a scintillation counter (Topcount, Packard) using a liquid scintillation cocktail (Packard).
# The results obtained are expressed as a percent of control values and as a percent inhibition of control values obtained in the presence of the test compounds. The control values correspond to the COX-2 activity of HUV-EC-C cells after stimulation with Phorbol Myristate Acetate (PMA) during 6 hours at 37° C. (can be done also with Tumor Necrosis Factor type alpha: TNFα) in absence of test compound.
# The concentration causing a half-maximal inhibition of control values (IC50 value) and Hill coefficients (nH) were determined for the reference compounds (cycloheximide) by nonlinear regression analysis of their inhibition curves. These parameters were obtained by Hill equation curve fitting. […]
molecule,measurement,value
"Lactoferrin (protein, UniProt P02788 20-710, looked up) Lactotransferrin: GRRRSVQWCAVSQPEATKCFQWQRNMRKVRGPPVSCIKRDSPIQCIQAIAENRADAVTLDGGFIYEAGLAPYKLRPVAAEVYGTERQPRTHYYAVAVVKKGGSFQLNELQGLKSCHTGLRRTAGWNVPIGTLRPFLNWTGPPEPIEAAVARFFSASCVPGADKGQFPNLCRLCAGTGENKCAFSSQEPYFSYSGAFKCLRDGAGDVAFIRESTVFEDLSDEAERDEYELLCPDNTRKPVDKFKDCHLARVPSHAVVARSVNGKEDAIWNLLRQAQEKFGKDKSPKFQLFGSPSGQKDLLFKDSAIGFSRVPPRIDSGLYLGSGYFTAIQNLRKSEEEVAARRARVVWCAVGEQELRKCNQWSGLSEGSVTCSSASTTEDCIALVLKGEADAMSLDGGYVYTAGKCGLVPVLAENYKSQQSSDPDPNCVDRPVEGYLAVAVVRRSDTSLTWNSVKGKKSCHTAVDRTAGWNIPMGLLFNQTGSCKFDEYFSQSCAPGSDPRSNLCALCIGDEQGENKCVPNSNERYYGYTGAFRCLAENAGDVAFVKDVTVLQNTDGNNNEAWAKDLKLADFALLCLDGKRKPVTEARSCHLAMAPNHAVVSRMDKVERLKQVLLHQQAKFGRNGSDCPDKFCLFQSETKNLLFNDNTECLARLHGKTTYEKYLGPQYVAGITNLKKCSTSPLLEACEFLRK",cyclooxygenase-2 inhibiting activity (in words),not to have any cyclooxygense-2 inhibiting activity
